Where “and” joins values, the source holds several entries; their conditions need not be identical. Equal values may be shown once. Read-outs that look alike come from different tables or passages of the source.
Tests used:
HER3 DIV-Fc = biological target: T1, HER3 DIV-Fc (human); test: ELISA
T1 chain: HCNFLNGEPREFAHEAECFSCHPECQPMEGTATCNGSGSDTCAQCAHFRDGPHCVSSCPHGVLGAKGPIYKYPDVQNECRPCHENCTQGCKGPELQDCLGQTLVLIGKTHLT

HER3 20-550-Fc = HER3 20-550-Fc (human); test: ELISA
HER3-His ECD [1] = biological target: HER3-His ECD (human); test: other, QCM Attana 25C
HER3 359-643-Fc = biological target: T2, HER3 359-643-Fc (human); test: ELISA
T2 chain: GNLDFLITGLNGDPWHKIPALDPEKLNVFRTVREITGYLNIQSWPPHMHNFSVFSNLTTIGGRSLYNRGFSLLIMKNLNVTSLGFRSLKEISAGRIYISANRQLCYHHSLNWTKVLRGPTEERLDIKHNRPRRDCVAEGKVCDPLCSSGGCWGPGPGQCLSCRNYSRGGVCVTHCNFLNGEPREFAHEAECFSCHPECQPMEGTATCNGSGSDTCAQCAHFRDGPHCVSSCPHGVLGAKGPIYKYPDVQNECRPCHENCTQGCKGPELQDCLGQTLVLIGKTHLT

HER3-His ECD [2] = biological target: HER3-His ECD (human); test: ELISA
HER3 (cell surface) [3] = biological target: HER3 (cell surface) (human); test: FACS, FaDu
HER3-Fc ECD [4] = biological target: HER3-Fc ECD (human); test: ELISA
HER3 458-643-Fc = biological target: T3, HER3 458-643-Fc (human); test: ELISA
T3 chain: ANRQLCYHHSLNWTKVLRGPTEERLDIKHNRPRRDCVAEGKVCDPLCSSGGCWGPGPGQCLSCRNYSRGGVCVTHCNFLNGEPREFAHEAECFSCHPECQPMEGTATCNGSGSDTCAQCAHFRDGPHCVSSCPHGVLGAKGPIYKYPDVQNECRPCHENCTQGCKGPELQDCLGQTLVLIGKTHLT

HER3-His ECD [5] = biological target: HER3-His ECD (human); test: ELISA; remark: listed apart in the source
HER3 359-587-Fc = biological target: T4, HER3 359-587-Fc (human); test: ELISA
T4 chain: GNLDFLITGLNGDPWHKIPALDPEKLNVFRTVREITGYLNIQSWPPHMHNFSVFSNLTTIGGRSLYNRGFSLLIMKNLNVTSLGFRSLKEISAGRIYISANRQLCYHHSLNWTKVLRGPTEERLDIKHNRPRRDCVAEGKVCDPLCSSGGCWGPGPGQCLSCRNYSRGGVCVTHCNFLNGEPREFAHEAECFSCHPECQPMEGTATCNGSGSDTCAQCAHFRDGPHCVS

HER3 20-358-Fc = biological target: T5, HER3 20-358-Fc (human); test: ELISA
T5 chain: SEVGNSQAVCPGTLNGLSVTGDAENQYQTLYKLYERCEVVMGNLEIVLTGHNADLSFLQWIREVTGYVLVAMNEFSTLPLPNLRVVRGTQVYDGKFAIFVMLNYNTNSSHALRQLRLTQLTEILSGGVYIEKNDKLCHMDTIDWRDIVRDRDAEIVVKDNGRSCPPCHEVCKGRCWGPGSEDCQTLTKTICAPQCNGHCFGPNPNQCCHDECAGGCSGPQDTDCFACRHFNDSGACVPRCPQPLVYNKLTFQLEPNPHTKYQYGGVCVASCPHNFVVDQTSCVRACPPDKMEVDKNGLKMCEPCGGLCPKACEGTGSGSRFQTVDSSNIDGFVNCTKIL

HER3-Fc ECD [6] = biological target: HER3-Fc ECD (human); test: other, QCM Attana bivalent
HER3 329-550-Fc = biological target: T6, HER3 329-550-Fc (human); test: ELISA
T6 chain: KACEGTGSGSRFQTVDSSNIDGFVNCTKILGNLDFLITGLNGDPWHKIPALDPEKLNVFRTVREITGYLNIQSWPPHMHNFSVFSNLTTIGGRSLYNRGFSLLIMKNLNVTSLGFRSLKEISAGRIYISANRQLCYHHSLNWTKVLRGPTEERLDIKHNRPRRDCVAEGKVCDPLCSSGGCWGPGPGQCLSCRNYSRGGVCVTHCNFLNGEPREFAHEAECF

HER3 20-531-Fc = HER3 20-531-Fc (human); test: ELISA
HER3-His ECD [7] = biological target: HER3-His ECD (human); test: ELISA; remark: listed apart in the source
HER3 (cell surface) [8] = biological target: HER3 (cell surface) (human); test: FACS, FaDu; remark: listed apart in the source
HER3 (cell surface) [9] = biological target: HER3 (cell surface) (human); test: FACS, SKBR-3
HER3 (cell surface) [10] = biological target: HER3 (cell surface) (human); test: FACS, MCF-7
HER3 395-643-Fc = biological target: T7, HER3 395-643-Fc (human); test: ELISA
T7 chain: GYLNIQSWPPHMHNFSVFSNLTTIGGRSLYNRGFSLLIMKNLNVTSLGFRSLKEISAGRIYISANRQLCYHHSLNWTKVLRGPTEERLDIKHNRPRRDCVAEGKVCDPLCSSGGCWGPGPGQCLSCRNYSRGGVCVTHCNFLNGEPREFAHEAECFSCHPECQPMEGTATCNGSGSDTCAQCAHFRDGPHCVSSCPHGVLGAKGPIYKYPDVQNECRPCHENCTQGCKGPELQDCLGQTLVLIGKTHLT

HER3 (cell surface) [11] = biological target: HER3 (cell surface) (human); test: FACS, FaDu; remark: listed apart in the source

binding result (HER3 DIV-Fc): no binding | binding result (HER3 20-550-Fc): no binding | Kd (HER3-His ECD [1]): 11200 pM | binding result (HER3 359-643-Fc): no binding | EC50 (HER3-His ECD [2]): 330 pM and 540 pM | EC50 (HER3 (cell surface) [3]): 300 pM | EC50 (HER3-Fc ECD [4]): 270 pM and 400 pM | binding result (HER3 458-643-Fc): no binding | EC50 (HER3-His ECD [5]): 330 pM | binding result (HER3 359-587-Fc): no binding | binding result (HER3 20-358-Fc): no binding | Kd (HER3-Fc ECD [6]): 220 pM | binding result (HER3 329-550-Fc): no binding | binding result (HER3 20-531-Fc): no binding | EC50 (HER3-His ECD [7]): 230 pM | EC50 (HER3 (cell surface) [8]): 6 pM | EC50 (HER3 (cell surface) [9]): 22 pM | EC50 (HER3 (cell surface) [10]): 21 pM | binding result (HER3 395-643-Fc): no binding | EC50 (HER3 (cell surface) [11]): 3 pM
B1: IgG 3-43 (antibody, V domains shown)
VH: QVQLQQSGPGLVKPSQTLSLTCAISGDSVSSNRAAWNWIRQSPSRGLEWLGRTYYRSKWYNDYAQSLKSRITINPDTPKNQFSLQLNSVTPEDTAVYYCARDGQLGLDALDIWGQGTMVTVSS
VL: QAGLTQPPAVSVAPGQTASITCGRDNIGSRSVHWYQQKPGQAPVLVVYDDSDRPAGIPERFSGSNYENTATLTISRVEAGDEADYYCQVWGITSDHVVFGGGTKLTVLG

Source: patent publication US11008402 (dated 2021)
